# Laboratory results published in patent US11932673 (IONTAS, dated 2024).
# B1: KB_A12 (scFv, V domains shown)
# VH: EVQLVESGGGLVRPGGSLRLSCAASGFTFSSYAMSWVRQAPGKGLEWVSAISGSGGSTYYADSVKGRFTISRDNTKNSLYLQMTSLRADDTAFYYCVKDFGPGYGTGWFDYWGPGTLVTVSS
# VL: AVNWYQQLPGKAPKLLIYAAGRCPRILMRCKQDSDCLAGCVCGPNGFCGANSGVSDRFSAAKSGTSASLAINGLRSEDEADYYCAAWDDSLNGYVFGTGTKLTVLG
# B2: KB_A12 MoKa-1 (antibody, V domains shown)
# VH: B1 VH
# VL: QSVLTQPPSVSEAPRQRVTITCSGSSSNIGNNAVNWYQQLPGKAPKLLIYAAGRINVKCSLPQQCIKPCKDAGMRFGKCMNKKCRCYSANSGVSDRFSAAKSGTSASLAINGLRSEDEADYYCAAWDDSLNGYVFGTGTKLTVLG
# B3: KB_A12 Kaliotoxin (antibody, V domains shown)
# VH: B1 VH
# VL: QSVLTQPPSVSEAPRQRVTITCSGSSSNIGNNAVNWYQQLPGKAPKLLIYAAGRGVEINVKCSGSPQCLKPCKDAGMRFGKCMNRKCHCTPKANSGVSDRFSAAKSGTSASLAINGLRSEDEADYYCAAWDDSLNGYVFGTGTKLTVLG
# B4: KB_A07 MoKa-1 (antibody, V domains shown)
# VH: B1 VH
# VL: DIQMTQSPSSLSASVGDRVTITCRASQSISSYLNWYQQKPGKAPKLLIYAAGVINVKCSLPQQCIKPCKDAGMRFGKCMNKKCRCYSSRSGVPSRFSGSGSGTDFTLTISSLQPEDFATYYCQQGASPPYTFGQGTKVEIKR
# B5: KB_A07 (scFv, V domains shown)
# VH: B1 VH
# VL: YLNWYQQKPGKAPKLLIYAAGVCPRILMRCKQDSDCLAGCVCGPNGFCGSRSGVPSRFSGSGSGTDFTLTISSLQPEDFATYYCQQGASPPYTFGQGTKVEIKR
# B6: KB_A12_ProTx-III 2M 2Gly (antibody, V domains shown)
# VH: B1 VH
# VL: VNWYQQLPGKAPKLLIYAAGRGCLKFGWKCNPRNDKCCSGLKCGSNHNWCKWHIGGANSGVSDRFSAAKSGTSASLAINGLRSEDEADYYCAAWDDSLNGYVFGTGTKLTVLG
# B7: KB_A12_ProTx-III 2M Gly (antibody, V domains shown)
# VH: B1 VH
# VL: VNWYQQLPGKAPKLLIYAAGRGCLKFGWKCNPRNDKCCSGLKCGSNHNWCKWHIGANSGVSDRFSAAKSGTSASLAINGLRSEDEADYYCAAWDDSLNGYVFGTGTKLTVLG
# B8: KB_A07_ProTx-III 2M Gly (antibody, V domains shown)
# VH: B1 VH
# VL: […]
# B9: KB_A07 Shk (antibody, V domains shown)
# VH: B1 VH
# VL: NWYQQKPGKAPKLLIYAAGVRSCIDTIPKSRCTAFQCKHSMKYRLSFCRKTCGTCSRSGVPSRFSGSGSGTDFTLTISSLQPEDFATYYCQQGASPPYTFGQGTKVEIKR
# B10: KB_A12 Shk (antibody, V domains shown)
# VH: B1 VH
# VL: NWYQQLPGKAPKLLIYAAGRRSCIDTIPKSRCTAFQCKHSMKYRLSFCRKTCGTCANSGVSDRFSAAKSGTSASLAINGLRSEDEADYYCAAWDDSLNGYVFGTGTKLTVLG
# B11: KB_A07 Kaliotoxin (antibody, V domains shown)
# VH: B1 VH
# VL: DIQMTQSPSSLSASVGDRVTITCRASQSISSYLNWYQQKPGKAPKLLIYAAGVGVEINVKCSGSPQCLKPCKDAGMRFGKCMNRKCHCTPKSRSGVPSRFSGSGSGTDFTLTISSLQPEDFATYYCQQGASPPYTFGQGTKVEIKR
# Target: T1, human Nav1.7 (human, UniProt Q15858 1-1988)
# Assay: cell-based or functional assay
# T1 sequence (Q15858 whole entry): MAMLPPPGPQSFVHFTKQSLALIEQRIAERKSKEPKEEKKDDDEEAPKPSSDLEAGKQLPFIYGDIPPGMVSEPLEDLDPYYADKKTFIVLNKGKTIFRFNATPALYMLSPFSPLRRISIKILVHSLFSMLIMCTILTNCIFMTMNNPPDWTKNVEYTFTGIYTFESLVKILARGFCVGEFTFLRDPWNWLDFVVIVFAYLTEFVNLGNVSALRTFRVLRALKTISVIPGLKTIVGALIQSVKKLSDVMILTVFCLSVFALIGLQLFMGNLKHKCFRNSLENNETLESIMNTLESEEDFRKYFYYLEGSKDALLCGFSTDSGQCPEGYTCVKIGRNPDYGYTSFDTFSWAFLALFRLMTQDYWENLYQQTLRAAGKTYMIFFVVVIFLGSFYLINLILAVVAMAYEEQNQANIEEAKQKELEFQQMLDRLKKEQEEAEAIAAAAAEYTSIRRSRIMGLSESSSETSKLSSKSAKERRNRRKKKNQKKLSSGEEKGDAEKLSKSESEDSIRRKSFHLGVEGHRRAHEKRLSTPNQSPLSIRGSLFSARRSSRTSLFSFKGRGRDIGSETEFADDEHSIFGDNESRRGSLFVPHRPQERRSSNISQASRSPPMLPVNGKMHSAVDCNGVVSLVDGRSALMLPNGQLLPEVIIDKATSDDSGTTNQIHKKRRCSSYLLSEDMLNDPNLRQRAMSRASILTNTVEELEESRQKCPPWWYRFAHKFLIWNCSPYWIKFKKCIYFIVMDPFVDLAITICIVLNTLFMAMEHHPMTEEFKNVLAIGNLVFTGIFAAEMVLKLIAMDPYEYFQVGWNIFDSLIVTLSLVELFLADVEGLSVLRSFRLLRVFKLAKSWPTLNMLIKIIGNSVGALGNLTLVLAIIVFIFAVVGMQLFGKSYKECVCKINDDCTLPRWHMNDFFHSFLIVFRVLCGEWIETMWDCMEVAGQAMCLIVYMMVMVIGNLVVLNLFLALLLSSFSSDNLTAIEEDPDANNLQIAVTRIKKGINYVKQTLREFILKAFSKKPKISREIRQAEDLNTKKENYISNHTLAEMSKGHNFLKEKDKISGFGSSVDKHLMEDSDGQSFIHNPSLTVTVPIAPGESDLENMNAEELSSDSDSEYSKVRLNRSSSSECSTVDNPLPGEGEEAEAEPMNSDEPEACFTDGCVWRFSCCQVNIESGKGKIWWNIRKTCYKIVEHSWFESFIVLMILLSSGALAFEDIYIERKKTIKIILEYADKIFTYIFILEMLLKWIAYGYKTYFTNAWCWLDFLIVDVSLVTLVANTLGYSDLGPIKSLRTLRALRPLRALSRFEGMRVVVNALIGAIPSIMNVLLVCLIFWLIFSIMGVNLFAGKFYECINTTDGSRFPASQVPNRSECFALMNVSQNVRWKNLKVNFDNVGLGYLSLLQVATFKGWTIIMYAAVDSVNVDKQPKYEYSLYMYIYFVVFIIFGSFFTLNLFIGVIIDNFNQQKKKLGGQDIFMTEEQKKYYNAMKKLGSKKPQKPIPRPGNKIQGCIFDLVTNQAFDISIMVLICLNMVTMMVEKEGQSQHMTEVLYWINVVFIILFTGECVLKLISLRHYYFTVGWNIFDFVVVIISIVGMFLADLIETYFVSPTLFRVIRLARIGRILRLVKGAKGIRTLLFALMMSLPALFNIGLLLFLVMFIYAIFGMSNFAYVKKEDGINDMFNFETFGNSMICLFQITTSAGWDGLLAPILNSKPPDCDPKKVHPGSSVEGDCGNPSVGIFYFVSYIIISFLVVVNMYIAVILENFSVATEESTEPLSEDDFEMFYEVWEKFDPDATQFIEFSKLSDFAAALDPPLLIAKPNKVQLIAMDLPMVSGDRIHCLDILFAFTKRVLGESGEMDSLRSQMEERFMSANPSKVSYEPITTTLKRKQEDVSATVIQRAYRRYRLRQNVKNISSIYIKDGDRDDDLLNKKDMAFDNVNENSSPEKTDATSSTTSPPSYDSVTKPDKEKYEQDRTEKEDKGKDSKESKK
row,Binder,IC50 of inhibition of Nav1.7 currents (extrapolated; IgG isotype control)
1,B1,> 100000 nM

# Target: T2, human Kv 1.3 (human, UniProt P22001 1-575)
# Assay: cell-based or functional assay
# T2 sequence (P22001 whole entry): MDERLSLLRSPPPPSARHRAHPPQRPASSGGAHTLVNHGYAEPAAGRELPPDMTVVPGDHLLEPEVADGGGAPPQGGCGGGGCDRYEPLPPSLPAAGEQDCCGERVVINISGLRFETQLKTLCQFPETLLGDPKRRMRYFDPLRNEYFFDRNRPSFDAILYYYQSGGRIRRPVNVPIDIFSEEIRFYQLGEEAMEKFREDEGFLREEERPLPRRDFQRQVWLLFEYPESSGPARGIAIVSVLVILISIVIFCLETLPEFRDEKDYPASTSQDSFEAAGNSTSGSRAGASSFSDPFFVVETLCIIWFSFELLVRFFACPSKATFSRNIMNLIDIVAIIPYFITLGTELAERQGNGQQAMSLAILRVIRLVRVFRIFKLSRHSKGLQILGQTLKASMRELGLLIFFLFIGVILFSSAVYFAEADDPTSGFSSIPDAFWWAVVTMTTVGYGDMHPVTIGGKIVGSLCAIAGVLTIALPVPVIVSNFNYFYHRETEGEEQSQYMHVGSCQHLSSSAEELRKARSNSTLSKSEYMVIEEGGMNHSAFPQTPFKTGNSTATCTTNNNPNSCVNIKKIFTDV
row,Binder,IC50 of inhibition of huKv1.3 currents (extrapolated)
1,B2,> 10000 nM
2,B1,> 10000 nM
3,B3,> 10000 nM
4,B4,> 10000 nM
5,B5,> 10000 nM

# Target: T1, human Nav1.7
# Assay: cell-based or functional assay
# Remark: another data set of the same source
row,Binder,"IC50 of inhibition of Nav1.7 currents, QPatch, CHO cells"
1,B6,1400 nM
2,B7,1500 nM
3,B8,1100 nM

# Target: T2, human Kv 1.3
# Assay: cell-based or functional assay
# Remark: another data set of the same source
row,Binder,"IC50 of inhibition of huKv1.3 currents, QPatch whole-cell patch clamp, CHO cells"
1,B9,40 nM
2,B10,20 nM
3,B11,900 nM
